From patent US20260242478A1 (published 2026)
Where no end group is shown, it is not given here.

B1: Phage-2666 (peptide)
peptide: PPKWCIPAWMCAGM
modifications: cysteine pairing not given here; also: displayed on bacteriophage as fusion to pIII
B2: Phage-2678 (peptide)
peptide: NVIRCEPMWMCYPS
modifications: cysteine pairing not given here; also: displayed on bacteriophage as fusion to pIII
B3: Phage-2676 (peptide)
peptide: IAKWCTPPWMCADN
modifications: cysteine pairing not given here; also: displayed on bacteriophage as fusion to pIII

What follows are binders tested against T1, PSMA Fab (assay: clonal phage ELISA; biotinylated PSMA Fab on neutravidin plate; wells pre-incubated with PSMA antigen as competitor; anti-M13-HRP detection).
T1 construct: also called Anti-PSMA Fab; 006 PSMA Fab
Description: (§1) Clonal phage were harvested as crude supernatants and screened via standard ELISAs. […] Prior to the addition of clonal phage. wells were incubated with blocking buffer and PSMA antigen or blocking buffer alone. Without washing or aspirating, clonal phage supernatants were then added to the wells and incubated for a short time. Wells were then washed followed by detection of bound phage using a horse radish conjugated anti-M13 antibody.

Binder	Phage binding ELISA signal, Anti-PSMA Fab with PSMA antigen
SVKLCIPDWMCVSE [Phage-2461]	0.203
DEIWCIPRWMCDGI [Phage-2462]	0.0834
DGKWCIPEWMCAQQ (cysteine pairing not given here; also: displayed as fusion to phage pIII) [Phage-2463]	0.0837
VMKWCTPQWMCEHL [Phage-2465]	0.068
PVKLCKPDWMCWVS [Phage-2464]	0.105

What follows are binders tested against T2, PSMA Fab (biotinylated (site not stated)) (assay: clonal phage ELISA; biotinylated PSMA Fab on neutravidin plate, blocking buffer alone, anti-M13-HRP detection;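 also: crude clonal phage supernatants added without washing to wells preincubated with PSMA antigen or with blocking buffer alone, briefly incubated, then washed before bound phage detection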).
T2 construct: also called Anti-PSMA Fab; 006 PSMA Fab

Binder	Phage binding ELISA signal, Anti-PSMA Fab
DWKWCTPAWMCTQT [Phage-2673]	0.877
ITKLCTPPWMCMDV [Phage-2668]	0.886
WDNWCTPSWMCSEL [Phage-2671]	0.883
B1	0.895
EEKWCIPYWMCEAV [Phage-2669]	0.885
LDMLCIPAWMCEPR [Phage-2674]	0.877
AGKLCIPNWMCEEQ [Phage-2670]	0.884
EHKWCIPDWMCWED [Phage-2675]	0.876
B2	0.874
VTNWCIPEWMCNGN [Phage-2667]	0.894
B3	0.876
SGNWCTPSWMCTGF [Phage-2677]	0.874
QEKWCIPEWMCSVR [Phage-2672]	0.879

Each binder was assayed against T1, PSMA Fab (assay: clonal phage ELISA; biotinylated PSMA Fab on neutravidin plate; anti-M13-HRP detection; no PSMA antigen).
Description: as §1

Binder	Phage binding ELISA signal, Anti-PSMA Fab
SVKLCIPDWMCVSE [Phage-2461]	1.26
DEIWCIPRWMCDGI [Phage-2462]	1.25
DGKWCIPEWMCAQQ (cysteine pairing not given here; also: displayed as fusion to phage pIII) [Phage-2463]	1.25
VMKWCTPQWMCEHL [Phage-2465]	1.25
PVKLCKPDWMCWVS [Phage-2464]	1.25

Each binder was assayed against T2, PSMA Fab (assay: clonal phage ELISA; biotinylated PSMA Fab on neutravidin plate, wells pre-incubated with PSMA antigen as competitor, anti-M13-HRP detection).
Description: as §1

Binder	Phage binding ELISA signal, Anti-PSMA Fab
DWKWCTPAWMCTQT [Phage-2673]	0.0698
ITKLCTPPWMCMDV [Phage-2668]	0.0571
WDNWCTPSWMCSEL [Phage-2671]	0.0853
B1	0.0794
EEKWCIPYWMCEAV [Phage-2669]	0.0691
LDMLCIPAWMCEPR [Phage-2674]	0.0925
AGKLCIPNWMCEEQ [Phage-2670]	0.0913
EHKWCIPDWMCWED [Phage-2675]	0.0562
B2	0.0918
VTNWCIPEWMCNGN [Phage-2667]	0.0615
B3	0.079
SGNWCTPSWMCTGF [Phage-2677]	0.062
QEKWCIPEWMCSVR [Phage-2672]	0.0823
